# From patent publication US20240317834A1, “COMPOSITIONS AND METHODS FOR NEUROLOGICAL DISEASES” (CODA BIOTHERAPEUTICS, INC., priority 2020, published 2024)
# B1: CODA1056: engineered chimeric LGIC receptor, R101F, Y115E, Y210W in SEQ ID NO: 33 (protein)
# chain: MRCSPGGVWLALAASLLHVSLQGEFQRKLYKELVKNYNPLERPVANDSQPLTVYFSLSLLQIMDVDEKNQVLTTNIWLQMSWTDHYLQWNVSEYPGVKTVFFPDGQIWKPDILLENSADERFDATFHTNVLVNSSGHCQYLPPGIFKSSCPMDLKNFPMDVQTCKLKFGSWSYGGWSLDLQMQEADISGYIPNGEWDLVGIPGKRSERFWECCKEPYPDVTFTVTMRRRMGYYLIQMYIPSLLIVILSWISFWINMDAAPARVGLGITTVLTMTTQSSGSRASLPKVSYVKAIDIWMAVCLLFVFSALLEYAAVNFVSRQHKELLRFRRKRRHHKSPMLNLFQEDEAGEGRFNFSAYGMGPACLQAKDGISVKGANNSNTTNPPPAPSKSPEEMRKLFIQRAKKIDKISRIGFPMAFLIFNMFYWIIYKIVRREDVHNQ
# modifications: synthetic sequence of chimeric LGIC
# Assays:
# rat DRG neurons = test: Rheobase shift and evoked action potentials in rat DRG neurons (current clamp); assay type: cell-based
# Method in brief: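 Rat DRG neurons expressing engineered receptors, whole-cell current clamp at RT. ECS at pH 7.3; K-gluconate internal at pH 7.2. 500 ms steps from −200 to 700 pA with and without ligand. Rheobase taken as the smallest depolarising step that fires an action potential; input resistance from negative steps.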
# Lenti-X 293T cells = test: YFP fluorescence quenching anion reporter plate reader assay of engineered receptors stimulated with acetylcholine or a non-native ligand; assay type: cell-based
# Method in brief: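 Lenti-X 293T cells carrying a YFP anion reporter were transiently transfected with channel DNA and assayed the next day in HEPES-buffered ECS at pH 7.2. Ligand (acetylcholine or non-native ligand) was added in NaI-substituted ECS. Percent quench was the mean of the last 10 s relative to the 15 s pre-addition baseline.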
molecule,measurement,setting,value
B1,"Rheobase Shift; Rat DRG Neurons, +TC-5619 @ EC90",rat DRG neurons; +TC-5619 @ EC90,632 ± 43 pA
same,"Rheobase Shift; Rat DRG Neurons, Baseline","rat DRG neurons; Baseline, no ligand",114 ± 12 pA
same,YFP fluorescence quenching using CNL001,"Lenti-X 293T cells; 1 nM CNL001, first column",−8.104%
same,YFP fluorescence quenching using CNL001,"Lenti-X 293T cells; 1 nM CNL001, second column",−12.153%
same,YFP fluorescence quenching using TC-5619/Bradanicline,Lenti-X 293T cells; 1 nM brd,−7.894%
same,YFP fluorescence quenching using TC-5619/Bradanicline,Lenti-X 293T cells; 3 nM brd,−11.812%
same,YFP fluorescence quenching using CNL001,"Lenti-X 293T cells; 10 nM CNL001, first column",−10.462%
same,YFP fluorescence quenching using CNL001,"Lenti-X 293T cells; 10 nM CNL001, second column",−4.735%
same,YFP fluorescence quenching using TC-5619/Bradanicline,Lenti-X 293T cells; 10 nM brd,36.211%
same,YFP fluorescence quenching using TC-5619/Bradanicline,Lenti-X 293T cells; 30 nM brd,40.624%
same,YFP fluorescence quenching using CNL001,"Lenti-X 293T cells; 50 nM CNL001, first column",−8.617%
same,YFP fluorescence quenching using CNL001,"Lenti-X 293T cells; 50 nM CNL001, second column",−1.606%
same,YFP fluorescence quenching using ABT-126,Lenti-X 293T cells; 50 nM abt,−20.96%
same,YFP fluorescence quenching using CNL001,"Lenti-X 293T cells; 100 nM CNL001, first column",−1.243%
same,YFP fluorescence quenching using CNL001,"Lenti-X 293T cells; 100 nM CNL001, second column",1.838%
same,YFP fluorescence quenching using ABT-126,Lenti-X 293T cells; 100 nM abt,−21.95%
same,YFP fluorescence quenching using TC-5619/Bradanicline,Lenti-X 293T cells; 100 nM brd,65.869%
same,YFP fluorescence quenching using ABT-126,Lenti-X 293T cells; 300 nM abt,−10.96%
same,YFP fluorescence quenching using TC-5619/Bradanicline,Lenti-X 293T cells; 300 nM brd,59.661%
same,YFP fluorescence quenching using CNL001,"Lenti-X 293T cells; 1 uM CNL001, first column",−0.567%
same,YFP fluorescence quenching using CNL001,"Lenti-X 293T cells; 1 uM CNL001, second column",4.663%
same,YFP fluorescence quenching using ABT-126,Lenti-X 293T cells; 1 uM abt,10.79%
same,"percent quench of YFP fluorescence, 30 nM TC-6683",Lenti-X 293T cells; TC-6683 30 nM,−19.889%
same,"percent quench of YFP fluorescence, 300 nM TC-6683",Lenti-X 293T cells; TC-6683 300 nM,−22.443%
same,"percent quench of YFP fluorescence, 3 uM TC-6683",Lenti-X 293T cells; TC-6683 3 uM,−12.623%
same,"percent quench of YFP fluorescence, 30 uM TC-6683",Lenti-X 293T cells; TC-6683 30 uM,−10.728%
same,"percent quench of YFP fluorescence, 100 uM TC-6683",Lenti-X 293T cells; TC-6683 100 uM,−10.959%
same,"percent quench of YFP fluorescence, 100 uM ach",Lenti-X 293T cells; acetylcholine 100 uM,−20.55%
same,"percent quench of YFP fluorescence, 300 uM ach",Lenti-X 293T cells; acetylcholine 300 uM,−19.32%
same,"percent quench of YFP fluorescence, 500 uM ach",Lenti-X 293T cells; acetylcholine 500 uM,−19.75%
same,"percent quench of YFP fluorescence, 1 mM ach",Lenti-X 293T cells; acetylcholine 1 mM,−14.08%
same,"percent quench of YFP fluorescence, 3 mM ach",Lenti-X 293T cells; acetylcholine 3 mM,14.07%
same,"percent quench of YFP fluorescence, 10 mM ach",Lenti-X 293T cells; acetylcholine 10 mM,25.7%
